Here are results for three molecules from patent US20050158323A1, “Methods of killing tumor cells by targeting internal antigens exposed on apoptotic tumor cells” (Vaccinex, Inc., priority 2003, published 2005).

Series [1] is described as follows: Maximum Tolerated Dose of chemotherapy in xenograft models (Table 6). As to conditions: mouse, in vivo, intravenous; nude mice; MTD confirmed by present inventors. The text has this:
Because of concerns regarding cumulative dose-limiting bone marrow toxicity when combining chemotherapy and radioimmunotherapy, it is necessary to determine the Maximum Tolerated Dose (MTD) of combination therapy and, where toxicity of the two therapeutic agents is additive, adopt strategies that will permit administration of both toxic agents. MTD is established by regulatory criteria related to the time required for platelet and white cell recovery in peripheral circulation. Such standards are familiar to those skilled in the art. In the case of murine models, an often employed surrogate definition of MTD is the maximum dose that results in an average of less than 20% weight loss or less than 10% mortality. Currently established MTD for the most common chemotherapeutic agents employed in standard clinical protocols or in animal models are shown in Tables 6 to 9, below.

The conditions of series [2]: nude mice; non-toxic dose at indicated schedule; cited from earlier work.
In another series the test system is 21MT1 tumor cells. Nature of the series: Taxol induced apoptosis and C35 exposure, annexin V/PI flow cytometry. In kind it is cell-based, human. As to conditions: 0.5 uM, 24 hours. The method, then:
24 hours following treatment with 0.5 uM Taxol™, 21MT1 tumor cells were stained with annexin V-FITC, propidium iodide, and with either 100 ng anti-C35 antibody 1F2 (dark line) or isotype control (grey fill) antibody. Both antibodies were directly conjugated to Alexa-647. Histograms were gated on the cells undergoing apoptosis (annexinV positive/PI negative).
Antibodies were pre-incubated with PAB buffer (FIG. 3A), 100-fold molar excess recombinant C35 protein (FIG. 3B), or 100-fold molar excess β-galactosidase protein (FIG. 3C).

Series [3] deals with T1, C35 on surface membrane of 21MT1 breast tumor cells (Homo sapiens, UniProt Q9BRT3).
T1 construct: 21MT1, derived from breast carcinoma, naturally expresses high levels of C35; endogenous in cells; host or cells: 21MT1 breast tumor cells
T1 sequence (Q9BRT3 1-115): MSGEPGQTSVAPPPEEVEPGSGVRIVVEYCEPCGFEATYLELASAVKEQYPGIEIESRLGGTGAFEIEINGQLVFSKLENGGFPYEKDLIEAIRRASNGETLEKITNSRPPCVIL
Nature of the series: C35 surface staining of breast tumor cells after radiation induced apoptosis (flow cytometry). As to conditions: 50 ng Alexa 647 conjugated antibody. Format: cell-based. On the procedure:
(§1) A line of continuously growing breast tumor cells that express the C35 tumor antigen was either irradiated with 300 Gy or left untreated. After continued in vitro culture for several days to allow apoptosis to develop, cells were harvested, washed and stained with 50 ng of 1F2 monoclonal anti-C35 antibody or a mouse IgG antibody control each conjugated to the fluorescent dye Alexa 647. Following 50 minutes incubation at 25C, cells were stained with Annexin V and propidium iodide (PI) using a standard commercial kit (Pharmingen). Cells were analyzed for staining with Annexin V, propidium iodide and Alexa 647 by flow cytometry employing standard protocols.
A general note: Flow cytometry measures light scatter and fluorescence of single cells or particles in a stream.

Series [4] deals with T2, recombinant human C35 (rhC35) (Homo sapiens, UniProt Q9BRT3).
T2 construct: made in house; host or cells: E. coli
T2 sequence (Q9BRT3 1-104): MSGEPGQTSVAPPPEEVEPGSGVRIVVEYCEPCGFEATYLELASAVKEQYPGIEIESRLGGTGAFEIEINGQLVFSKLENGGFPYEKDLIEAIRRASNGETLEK
In words: Epitope localization by Western blot of Lys-C digested rhC35. In kind it is binding. As to conditions: Western blot, 1 μg/ml antibody. The text has this:
(§2) To localize the epitope specificity of 1B3 and 1F2 antibodies, recombinant human C35 (rhC35) synthesized with a 6× His tag in E. coli was digested with Lys-C endoproteinase. This enzyme cuts after lysine (K) residues in the protein sequence. […] The full sequence of rhC35, including the amino terminal 6× His tag addition is shown. Amino acid positions are numbered relative to the amino terminal methionine (M) of the native human sequence. Note that digestion at the first and third lysine followed by negatively charged residues is inefficient and some longer combination fragments may be generated. Lys-C endoproteinase was added to purified rhC35 at a […] weight ratio and incubated for 18 hours at 37° C. in 25 mM Tris, pH 8.0. The digest was ethanol precipitated and resolubilized in reducing Tricine sample buffer. After heating 5 minutes at 100° C., samples were separated by electrophoresis on a 16% Tricine gel (Invitrogen). Peptides were transferred to PVDF membranes and the blots depicted in FIG. 10 were either stained with Coomassie blue (lanes 1-3 of both left and right panels) to detect all peptides or processed with one of the following: 1 μg/ml of the murine 1F2 anti-C35 antibody followed by alkaline phosphatase conjugated goat anti-mouse antibody (lane 4 of left panel); 1 μg/ml of the 1B3 anti-C35 immunoglobulin variable regions linked to human constant regions (MAb11) followed by alkaline phosphatase conjugated goat anti-human antibody (lane 5 of left panel); or anti-6× His tag mouse antibody (Amersham) followed by alkaline phosphatase conjugated goat anti-mouse antibody (lane 4 and 5 of right panel). BCIP/NBT substrate was added and developed to detect the secondary reagents. Molecular weight markers are indicated in the flanking lanes of both panels.
(§3) In FIG. 10, the indicated band A migrates at the position of undigested rhC35. Note that band B stains with 1F2 but not MAb11 (1B3) anti-C35 antibody while band C stains with neither 1F2 nor MAb11 (1B3) antibody. Since bands B and C both do stain with anti-6× His tag antibody to the 6× His tag at the amino terminus of rhC35, it may be concluded that both fragments lack C-terminal peptide fragments. […] This epitope is not required for staining with 1F2.
A general note: A western blot detects proteins with antibodies after separation by electrophoresis.

Series [5] has as its target T3, recombinant human C35 (rhC35) (Homo sapiens, UniProt Q9BRT3).
T3 construct: made in house; host or cells: E. coli
T3 sequence (Q9BRT3 1-52): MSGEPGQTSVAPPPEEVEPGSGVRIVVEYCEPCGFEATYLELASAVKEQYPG
The description is as above. In kind it is binding. As to conditions: Western blot, 1 μg/ml antibody.
From the text: as §2, §3
The source holds these as a separate data set.

Series [6] has as its target T4, recombinant human C35 (rhC35) (Homo sapiens, UniProt Q9BRT3).
T4 construct: made in house; host or cells: E. coli
T4 sequence (Q9BRT3 1-115): T1 sequence (Q9BRT3 1-115)
The description is as above. Format: binding. As to conditions: native C35 sequence numbering; 1 μg/ml antibody.
From the text: as §2, §3

Series [7] concerns the target T5, C35 protein (Homo sapiens, UniProt Q9BRT3).
T5 sequence (Q9BRT3 1-115): T1 sequence (Q9BRT3 1-115)
In words: ELISA and Western Blot of hybridoma antibodies. In kind it is binding. As to conditions: ELISA and Western Blot assays. On the procedure: (§4) Hybridoma cell lines IF2.4.1 and 1B3.6.1, specific for C35 polypeptides, were prepared using hybridoma technology. (Kohler et al., Nature 256:495 (1975); Kohler et al., Eur. J. Immunol. 6:511 (1976); Kohler et al., Eur. J. Immunol. 6:292 (1976); Hammerling et al., in: Monoclonal Antibodies and T-Cell Hybridomas, Elsevier, N.Y., pp. 571-681 (1981)). Briefly, hybridoma cell lines were generated using standard PEG fusion to the non-secreting myeloma cell line NS-1 (P3/NS1/1-AG4-1, ATCC #TIB-18) of splenocytes from BALB/c mice immunized with syngeneic BCA34 fibroblast tumor cells transduced to overexpress C35. Following PEG fusion to NS-1, the hybridomas were grown in methylcellulose semi-solid media. Approximately 2 weeks later, hybridoma colonies were isolated into 96 well plates and individual supernatants were tested for reactivity with C35 by ELISA, Western blot, and immunohistochemistry. Positive hybridomas colonies were subcloned and screened for reactivity twice to ensure clonality. Antibodies were isolated from hybridoma supernatants by protein G affinity purification using standard methods. […] In addition, we have developed intracellular staining flow cytometry assays for quantitative analysis using antibodies from hybridoma cell line 1F2 conjugated to Alexa-647 flourochrome. Each of these antibodies is distinct, yet both are specific for C35 protein. […]
On the technique in general: In an ELISA, binding on a coated surface is turned into a signal by an enzyme label.

Series [8] concerns the target T5, C35 protein. In words: Competitive binding ELISA. As to conditions: 1F2 versus 1B3. On the procedure: as §4
Series [9] deals with T6, C35 positive tumors and cell lines (Homo sapiens, UniProt Q9BRT3).
T6 construct: from tissue
T6 sequence (Q9BRT3 1-115): T1 sequence (Q9BRT3 1-115)
In words: Immunohistochemistry of formalin fixed, paraffin embedded samples. In kind it is binding. On the procedure: as §4

The target in series [10] is T7, C35 on surface membrane of breast tumor cells that express the C35 tumor antigen (Homo sapiens, UniProt Q9BRT3).
T7 construct: A line of continuously growing breast tumor cells that express the C35 tumor antigen; endogenous in cells
T7 sequence (Q9BRT3 1-115): T1 sequence (Q9BRT3 1-115)
Nature of the series: C35 surface staining of breast tumor cells after mitomycin C induced apoptosis (flow cytometry). In kind it is cell-based. As to conditions: 50 ng Alexa 647 conjugated antibody. The method, then: as §1, with “treated” for “irradiated”, “6 ug/ml mitomycin C” for “300 Gy”, “48 hours” for “several days”

Where [11] appears, read: untreated live cells (PI negative), Annexin V negative.

As to `COc1cccc2c1C(=O)c1c(O)c3c(c(O)c1C2=O)C[C@@](O)(C(=O)CO)C[C@@H]3O[C@H]1C[C@H](N)[C@H](O)[C@H](C)O1` [Adriamycin, Doxorubicin], in series [1], the MTD (in general, the largest dose that counted as tolerated) turned out to be 10 mg/kg.

Turning to `CC(=O)O[C@H]1C(=O)[C@@]2(C)[C@H]([C@H](OC(=O)c3ccccc3)[C@]3(O)C[C@H](OC(=O)[C@H](O)[C@@H](NC(=O)c4ccccc4)c4ccccc4)C(C)=C1C3(C)C)[C@]1(OC(C)=O)CO[C@@H]1C[C@@H]2O` [Taxol, paclitaxel], in [2], the “Maximum Tolerated Dose” value is given as “No toxicity^2”. Also, the “induction of apoptosis with exposure of C35 on the cell surface” value in the series with 21MT1 tumor cells is reported as “induces apoptosis”.

B1: 1F2: mouse monoclonal anti-C35 antibody from hybridoma 1F2, gamma1 isotype, kappa light chain; VH SEQ ID NO:4, VK SEQ ID NO:6 (antibody, listed as Mus sp., V domains shown)
VH: DVQLQESGPGLVKPSQSLSLTCSVTGYSITSGYFWNWIRQFPGNKLEWMGYISYDGSNNSNPSLKNRISFTRDTSKNQFFLKFNSVTTDDSAAYYCTRGTTGFAYWGQGTLVTVSA
VL: QIVLTQSPAIMSASPGEKVTISCSASSSVSYMNWYQQKPGSSPKPWIYHTSNLASGVPARFSGSGSGTSYSLTISSMEAEDAATYYCQQYHSYPPTFGGGTKLEIK
Regarding B1, the “differential staining versus isotype control antibody” value was “clearly differentially stained” in series [3] (irradiated (300 Gy) tumor cells, viable (PI negative), undergoing apoptosis (Annexin V positive)); “absence of differential staining” in [3] (setting [11]); “clearly differentially stained” in series [10] (6 ug/ml mitomycin C, 48 hours, viable (PI negative), undergoing apoptosis (Annexin V positive)); “absence of differential staining” in [10] (setting [11]). Further, the “staining of approximately 15 kDa band B (lacks C35 residues 105-115)” value in [4] is “stains”. In addition, the “staining of approximately 8 kDa band C (in addition lacks residues 53-104)” value in [5] is reported as “does not react”. Further, the epitope specificity entry in series [6] is recorded as “residues 53-104”. In addition, the “binding to recombinant C35 protein” value in the series with C35 protein [7] is “specifically bind recombinant C35 protein”. For the same molecule, in the series with C35 protein [8], the “epitope comparison by competition” value is “bind different epitopes of the C35 protein”. Also, the immunohistochemical staining result in [9] is “specifically stain formalin fixed, paraffin embedded C35 positive tumors and cell lines”.
